Reference: patent US9999664B2, “HIV-1 gp120 mini V3 loop and uses thereof” (The Scripps Research Institute, priority 2011, dated 2018)

How the values were obtained:
[1] = molecular target: HIV-1JR-FL Env trimers on the surface of transfected 293T cells (Human immunodeficiency virus 1, strain JR-FL); assay: JR-FL cell surface binding, flow cytometry on transfected 293T cells
[2] = molecular target: HIV-1 JR-FL envelope (Env) on pseudovirus (HIV-1 JR-FL)
[3] = molecular target: HIV-1 JR-FL envelope (Env) on pseudovirus (HIV-1 JR-FL); remark: listed apart in the source
[4] = molecular target: gp120 (ELISA antigen of FIG. 3, strain not stated) (HIV-1, strain not stated); assay: ELISA on coated gp120, absorbance at 405 nm
[5] = molecular target: HIV-1 ADA envelope N332A on pseudovirus (HIV-1 ADA); assay: cell-based or functional assay
[6] = molecular target: HIV-1 JRCSF envelope N301A on pseudovirus (HIV-1 JR-CSF) (UniProt P20871); assay: cell-based or functional assay
[7] = molecular target: HIV-1 JRFL envelope N301A on pseudovirus (HIV-1 JR-FL); assay: cell-based or functional assay
[8] = molecular target: HIV-1 ADA envelope N301A on pseudovirus (HIV-1 ADA); assay: cell-based or functional assay
[9] = molecular target: HIV-1 JRFL envelope N332A on pseudovirus (HIV-1 JR-FL); assay: cell-based or functional assay
[10] = molecular target: HIV-1 92RW020 envelope N332A on pseudovirus (HIV-1 92RW020); assay: cell-based or functional assay
[11] = molecular target: HIV-1 SF162 envelope N301A on pseudovirus (HIV-1 SF162) (UniProt P19550); assay: cell-based or functional assay
[12] = molecular target: HIV-1 SF162 envelope N332A on pseudovirus (HIV-1 SF162) (UniProt P19550); assay: cell-based or functional assay
[13] = molecular target: HIV-1 BaL envelope N301A on pseudovirus (HIV-1 BaL); assay: cell-based or functional assay
[14] = molecular target: HIV-1 JRCSF envelope N332A on pseudovirus (HIV-1 JR-CSF) (UniProt P20871); assay: cell-based or functional assay
[15] = molecular target: HIV-1 BaL envelope N332A on pseudovirus (HIV-1 BaL); assay: cell-based or functional assay
[16] = molecular target: engineered outer domain mini-V3 (eODmV3), glycosylated gp120 outer domain construct (HIV-1 (base strain HxB2; mini-V3 based on JR-FL)); assay: ELISA of IgG PGT 128 (FIG. 13)
JR-FL core + mini-V3 = assay: ELISA on coated antigen, OD 405
[17] = molecular target: HIV-1YU2 Env on the surface of transfected 293T cells (Human immunodeficiency virus 1, strain YU2); assay: flow cytometry on HIV-1YU2 Env-transfected 293T cells, MFI
[18] = molecular target: HIV-1 BaL envelope (Env) on pseudovirus (HIV-1 BaL); assay: cell-based or functional assay
[19] = molecular target: HIV-1 JR-FL envelope (Env) on pseudovirus (HIV-1 JR-FL); assay: cell-based or functional assay
[20] = molecular target: HIV-1 JR-CSF envelope (Env) on pseudovirus (HIV-1 JR-CSF) (UniProt P20871); assay: cell-based or functional assay
[21] = molecular target: gp120 JR-FL (HIV-1 JR-FL); assay: gp120 ELISA
[22] = molecular target: gp120 JR-CSF (HIV-1 JR-CSF) (UniProt P20871); assay: gp120 ELISA
gp120 BaL (HIV-1 BaL) = assay: gp120 ELISA

Q: With 2G12 IgG (antibody) as the substance, how does the EC50 [1] read?
A: 11.6 nM

Q: And the IC50 (JR-FL neutralization) [2]?
A: 8.5 nM

Q: How did the IC50 (read off the curve; HIV-1JR-FL pseudovirus) [3] turn out when 128 (-ASYWNR) (antibody) was run?
A: 0.7 mg/L

Q: And the EC50 (read off the curve) [4]?
A: 0.7 mg/L

Q: How did the EC50 [1] turn out when PGT 127 Fab was run?
A: 12.7 nM

Q: What about the IC50 (JR-FL neutralization) [2] of the same substance?
A: 14.6 nM

Q: What does the source list for PGT 127 IgG (antibody)?
A: EC50 [1]: 3.1 nM; IC50 (read off the curve; HIV-1JR-FL pseudovirus) [3]: 0.02 mg/L; IC50 (JR-FL neutralization) [2]: 0.18 nM; EC50 (read off the curve) [4]: 0.08 mg/L; fold change in IC50 of variant envelope compared to WT envelope [5]: > 200 fold; fold change in IC50 of variant envelope compared to WT envelope [6]: > 250 fold; fold change in IC50 of variant envelope compared to WT envelope [7]: > 200 fold; fold change in IC50 of variant envelope compared to WT envelope [8]: > 200 fold; fold change in IC50 of variant envelope compared to WT envelope [9]: > 200 fold; fold change in IC50 of variant envelope compared to WT envelope [10]: 6.3 fold; fold change in IC50 of variant envelope compared to WT envelope [11]: > 200 fold; fold change in IC50 of variant envelope compared to WT envelope [12]: > 200 fold; fold change in IC50 of variant envelope compared to WT envelope [13]: > 200 fold; fold change in IC50 of variant envelope compared to WT envelope [14]: > 200 fold; fold change in IC50 of variant envelope compared to WT envelope [15]: > 200 fold

Q: What does the source list for PGT 128 Fab?
A: EC50 [1]: 10.3 nM; IC50 (JR-FL neutralization) [2]: 6.3 nM

Q: PGT 128 IgG (antibody) was tested. Which apparent affinity [16] did it give?
A: 46 nM

Q: What about the EC50 [1] of the same substance?
A: 2.8 nM

Q: And the IC50 (read off the curve; HIV-1JR-FL pseudovirus) [3]?
A: 0.01 mg/L

Q: What about the IC50 (JR-FL neutralization) [2] of the same substance?
A: 0.09 nM

Q: What about the EC50 (read off the curve) [4] of the same substance?
A: 0.04 mg/L

Q: And the fold change in IC50 of variant envelope compared to WT envelope [5]?
A: > 200 fold

Q: What about the fold change in IC50 of variant envelope compared to WT envelope [6] of the same substance?
A: 10.7 fold

Q: What about the fold change in IC50 of variant envelope compared to WT envelope [7] of the same substance?
A: > 200 fold

Q: And the fold change in IC50 of variant envelope compared to WT envelope [8]?
A: > 200 fold

Q: And the fold change in IC50 of variant envelope compared to WT envelope [9]?
A: > 200 fold

Q: And the fold change in IC50 of variant envelope compared to WT envelope [10]?
A: 1.6 fold

Q: And the fold change in IC50 of variant envelope compared to WT envelope [11]?
A: > 200 fold

Q: And the fold change in IC50 of variant envelope compared to WT envelope [12]?
A: > 200 fold

Q: And the fold change in IC50 of variant envelope compared to WT envelope [13]?
A: > 200 fold

Q: And the fold change in IC50 of variant envelope compared to WT envelope [14]?
A: 1.4 fold

Q: And the fold change in IC50 of variant envelope compared to WT envelope [15]?
A: > 200 fold

Q: What about the EC50 (read off the curve) (JR-FL core + mini-V3) of the same substance?
A: 2 nM

Q: What about the EC50 (read off the curve) [17] of the same substance?
A: 8 nM

Q: What does the source list for “PGT 128 IgG variant HC W100eA (antibody)”?
A: EC50 (read off the curve) [4]: 0.5 mg/L; Fold change in neutralization (IC50 variant/IC50 WT antibody) [18]: 658 fold; Fold change in neutralization (IC50 variant/IC50 WT antibody) [19]: > 3000 fold; Fold change in neutralization (IC50 variant/IC50 WT antibody) [20]: 29.7 fold; fold change in gp120 binding (EC50 variant/EC50 WT) [21]: 9.4 fold; fold change in gp120 binding (EC50 variant/EC50 WT) [22]: 17.4 fold; fold change in gp120 binding (EC50 variant/EC50 WT) (gp120 BaL (HIV-1 BaL)): 15 fold
